Laboratory results: publication PMC2082129, “A Switch in the Mechanism of Communication between the Two DNA-Binding Sites in the SfiI Restriction Endonuclease” (Journal of Molecular Biology, 2007)
Numbering of substitutions follows the chain as printed. In names and notes the source's numbering stands.

B1: SfiI restriction endonuclease, wild type (enzyme)
chain: MHQDYRELSLDELESVEKQTLRTIVQALQQYSKEAKSIFETTAADSSGEVIVLAEDITQYALEVAETYPINRRFAGFIDYKRVRWLPSPHGLLPQVLLVDAKASTEKNRDTLQRSQLPMDAEFRNTSSGEVVTMEAGVIPHLMLQSANDGVLPAVTTSIFVHFYYRELKDVEGRYRELKSIYVLSLPHARLKQRYNPDPDTSFFGAGKHSPARGEVARIRVYFDRLKEACPWRLQELHYSADSEYTQPRWRDLNDAGHEVTKEFLFLER
notes: SfiI restriction endonuclease, expressed from the SfiI restriction gene on pRRS-SfiIR+; tetramer of identical subunits, Mr of the tetramer printed as 124,176; The plasmid carries the SfiI restriction gene, and the printed tetramer Mr of 124,176 fits four whole subunits; In the AUC the protein stood with the 21-bp DNA duplex HEX-21 and Ca2+; also called wt SfiI; SfiI endonuclease; source: E. coli …
B2: SfiI restriction endonuclease, Y68F mutant (enzyme)
chain: B1 chain with Y68F
notes: SfiI restriction endonuclease with Tyr68 replaced by Phe (QuikChange mutagenesis of pRRS-SfiIR+); Same construct as m1 apart from Y68F; also called Y68F protein; source: E. coli ER2238 (transformed with pSYX33-SfiIM+ and a derivative of pRRS-SfiIR+), purified as described previously

Target: the molecule itself
Test: AUC; sedimentation equilibrium at 20 °C; 2.5 μM enzyme (tetramer) with 2.5 μM HEX-21 DNA duplex; AUC buffer (10 mM Tris-HCl, 50 mM NaCl, 10 mM CaCl2, 1 mM DTT, pH 7.9); absorbance of the HEX label at 539 nm; 10,000, 15,000 and 25,000 rpm, global fit to a single species; oligomeric state of the protein bound to DNA

| Protein | stoichiometry N |
| --- | --- |
| B1 | 4 |
| B2 | 4 |
